Consider 1 molecule from patent US20240327884A1, “ATP-PRT VARIANT WITH REDUCED FEEDBACK INHIBITION BY HISTIDINE, AND HISTIDINE-PRODUCING STRAIN EXPRESSING SAME” (priority 2020, published 2024).

This test deals with T1, ATP phosphoribosyltransferase (Escherichia coli, UniProt P60757, E271K/H232T/R250H/S288P/T252L).
T1 construct: made in house; supernatant of sonicated cells
The test is classed as biochemical, E. coli. The following applies: comparison of hisG_WT, hisG_SDM4, hisG_SDM7. The procedure:
Each strain was cultured under conditions of 30° C. and 180 rpm. When the OD600 reached 0.6, ATP-PRT expression was induced with 1 mM IPTG (final concentration) and additional culture was performed for about 4 hours. The cells obtained after culturing were sonicated and centrifuged. The obtained supernatants were used for evaluation of ATP phosphoribosyltransferase activity. […] The protein in each supernatant was quantified to match the concentration, and the enzyme activity was measured after mixing the reactants according to the reaction composition shown in Table 8 below.
The activity was measured at 30° C. at a UV wavelength of 290 nm at 2 minute intervals for 30 minutes.

B1: hisG_SDM7: ATP-PRT variant containing H232T, R250H, T252L, E271K and S288P mutations (protein)
chain: MTDNTRLRIAMQKSGRLSDDSRELLARCGIKINLHTQRLIAMAENMPIDILRVRDDDIPGLVMDGVVDLGIIGENVLEEELLNRRAQGEDPRYFTLRRLDFGGCRLSLATPVDEAWDGPLSLNGKRIATSYPHLLKRYLDQKGISFKSCLLNGSVEVAPRAGLADAICDLVSTGATLEANGLREVEVIYRSKACLIQRDGEMEESKQQLIDKLLTRIQGVIQARESKYIMMTAPTERLDEVIALLPGAEHPLILPLAGDQQRVAMHMVSSKTLFWETMEKLKALGASPILVLPIEKMME
modifications: hisG_SDM7
notes: ATP-PRT variant containing H232T, R250H, T252L, E271K and S288P mutations
Take B1: the “Resistance to activity inhibition by histidine” value is listed as “best resistance”.
